“And” between values parts separate entries of the source, which are not always exact repeats. Identical values can stand only once. Like-named read-outs stand apart in the source and are kept apart here.

We go through two substances from paper PMC3052529.

Assay [1] has as its target Flag-core106 (hepatitis C virus (strain not stated)). Nature of the assay: AlphaScreen or HTRF. For orientation: Bead proximity is the source of the signal in Alpha formats.
The target of assay [2] is HCV core106 (first N-terminal 106 residues of HCV core protein) (hepatitis C virus (strain not stated)). The assay can be described thus: cross-linking.
Assay [3] concerns the target Flag-core169 (hepatitis C virus H77 genotype 1a). The assay can be described thus: AlphaScreen or HTRF.
Assay [4] deals with Flag-core106 (hepatitis C virus (strain not stated)). The assay can be described thus: AlphaScreen or HTRF. The source holds these as a separate data set.
Assay [5] concerns the target HCV core169 (first 169 residues of HCV core protein, domains D1+D2) (hepatitis C virus H77 genotype 1a). The assay can be described thus: cross-linking.

“HCV core106 (first N-terminal 106 residues of HCV core protein) (domain or fragment)”: the IC50 – broadly, the concentration that inhibits the measured activity by half – in assay [1] turned out to be 344 nM; in assay [3], 870 nM; in assay [4], 220 nM. Besides, the stoichiometry N (in general, a count of units in the complex or per binding partner) in assay [2] stood at 2.

As for “HCV core169 (first 169 residues of HCV core protein, domains D1+D2) (domain or fragment)”, the stoichiometry N in assay [5] is 2 and 3.
